The assay deals with Recombinant soluble HA trimer of A/New Caledonia/20/1999 (H1N1 NC99) (Influenza A virus A/New …, strain). The assay is described as follows: cryo-EM structure.

B1: 310-63E6 Fab (Fab, V domains shown)
VH: QVQLVQSGAEVKKPGSSVKVSCTASGGTFSTYQFSWVRQAPGQGLEWMGRIVPIQGMDYAQKFRGRVTITADKWTSTVYMEVTSLRSEDTAVYYCATSRSMYFYYQLDVWGRGTTVTVSS
VL: EIVLTQSPGTLSLSPGERATVSCRASQSVTSTFLAWYQQRPGQAPRLLIYGASSRATGIPDRFSGSGSEADFTLTINRLEPEDFAVYYCQQYATSPWTFGQGTKVEIK
In the case of B1, the binding result is given as “binds”.

B2: 310-39G10 Fab (Fab, V domains shown)
VH: QVQLVQSGAEVKKPGSSVKVSCKASGGTFSRYTISWVRQAPGQGLEWMGRISPIAGLENYAQKFQGRVTITADISTSTAYMELSSLRSDDTAVYYCAGSSGYYQPPPYWGQGTLVTVSS
VL: EIVLTQAPFSLSLSPGERATLSCRASQSVSSSSLAWYHQKPGQAPRLLIYGASSRATGIPDRFSGSGSGTDFTLTISRLEPEDFSLYYCQQYGSSPLTFGQGTRLEIK
For B2, the binding result was “binds”.

For the origin of these results see article PMC9474600 (Immunity, 2022).
